Measurements from the Human Domainome abundance scans (Beltran et al. 2025).
± gives the uncertainty stated by the source.

B1: Kinesin-like protein KIF16B, residues 1213 to 1273; numbered along this chain, Q96L93 (parent)
chain: ETWTVFRRYSRFREMHKTLKLKYAELAALEFPPKKLFGNKDERVIAERRSHLEKYLRDFFS

Variants of: B1
Assay: abundance fitness (aPCA) (normalised: wild type 0, dead -1); higher = more abundant; growth selection in yeast, the domain comes from the species named
Conditions: Homo sapiens

Abundance fitness of substitutions, site by site:
L56: E -1.2 ± 0.3 | T -0.001 ± 0.081 | R -0.584 ± 0.066 | S -0.453 ± 0.043 | D -0.343 ± 0.13 | Q 0.163 ± 0.094 | C 0.032 ± 0.08 | P -0.308 ± 0.13 | V -0.019 ± 0.053 | Y -0.263 ± 0.19 | K -0.567 ± 0.14 | N -0.518 ± 0.46 | M -0.191 ± 0.081 | I -0.011 ± 0.087
E53: M 0.309 ± 0.076 | T 0.317 ± 0.097 | S 0.414 ± 0.06 | C 0.31 ± 0.13 | A 0.191 ± 0.067 | K 0.391 ± 0.069 | Y 0.329 ± 0.1 | V 0.277 ± 0.053 | P 0.228 ± 0.15 | H 0.059 ± 0.15 | N 0.292 ± 0.28 | R 0.412 ± 0.053 | F 0.243 ± 0.078 | I 0.197 ± 0.11 | W 0.378 ± 0.082 | L 0.352 ± 0.059 | G 0.426 ± 0.047
S61: L -0.038 ± 0.36 | Y -0.81 ± 0.4 | G -0.09 ± 0.18 | R 0.143 ± 0.14 | P -0.337 ± 0.1 | K -0.025 ± 0.087 | A -0.263 ± 0.23 | Q 0.11 ± 0.17 | V -0.029 ± 0.099 | T -0.296 ± 0.16 | M -0.073 ± 0.19 | C -0.412 ± 0.32 | N -0.23 ± 0.11
L52: W 0.217 ± 0.077 | V 0.058 ± 0.059 | T -0.363 ± 0.091
K54: H -0.532 ± 0.41 | I -0.314 ± 0.14 | R 0.076 ± 0.043 | D -0.489 ± 0.16 | G -0.171 ± 0.06 | P -0.945 ± 0.39 | S -0.174 ± 0.035 | M -0.327 ± 0.07 | V -0.289 ± 0.069 | F -0.664 ± 0.097 | W -0.476 ± 0.077 | T -0.013 ± 0.071 | L -0.256 ± 0.058 | C -0.785 ± 0.42 | E -0.298 ± 0.14 | N -0.127 ± 0.11 | A -0.251 ± 0.076
R57: A -0.444 ± 0.085 | F -0.33 ± 0.1 | H -0.6 ± 0.25 | T -0.309 ± 0.06 | Y -0.437 ± 0.18 | Q -0.776 ± 0.14 | D -0.712 ± 0.16 | W -0.447 ± 0.11 | C -0.239 ± 0.07 | V -0.412 ± 0.093 | E -0.636 ± 0.11 | N -0.395 ± 0.11 | L -0.368 ± 0.059 | M -0.468 ± 0.12 | I -0.388 ± 0.095 | S -0.427 ± 0.063 | P -0.087 ± 0.094 | K -0.094 ± 0.11
F60: M -0.256 ± 0.097 | W 0.153 ± 0.073 | R -0.565 ± 0.097 | L -0.087 ± 0.064 | I -0.143 ± 0.28 | V -0.165 ± 0.086 | Q -1.01 ± 0.33 | E -1 ± 0.23 | A -0.729 ± 0.11 | S -0.585 ± 0.1 | G -0.647 ± 0.088 | C -0.263 ± 0.15 | P -0.759 ± 0.14
D58: H 0.09 ± 0.11 | A 0.087 ± 0.083 | L -0.075 ± 0.08 | W 0.204 ± 0.054 | G 0.03 ± 0.053 | R 0.161 ± 0.049 | K 0.241 ± 0.081 | M 0.056 ± 0.069 | Q -0.153 ± 0.13 | N -0.149 ± 0.21 | S -0.182 ± 0.086 | V -0.048 ± 0.061 | P 0.09 ± 0.084 | F 0.049 ± 0.25 | C -0.024 ± 0.17 | I 0.012 ± 0.19
Y55: V -0.082 ± 0.065 | S 0.12 ± 0.064 | D -0.613 ± 0.092 | L 0.182 ± 0.058 | P -0.19 ± 0.14 | W 0.281 ± 0.07 | M 0.185 ± 0.082 | E -0.942 ± 0.19 | R 0.396 ± 0.055 | C 0.265 ± 0.088 | N -0.249 ± 0.13 | A -0.007 ± 0.082 | K 0.481 ± 0.066 | H -0.116 ± 0.12 | G 0.021 ± 0.054
F59: K -0.204 ± 0.12 | L -0.157 ± 0.068 | E -0.627 ± 0.11 | C -0.429 ± 0.14 | I -0.031 ± 0.41 | Q -0.51 ± 0.18 | G -0.573 ± 0.076 | R -0.461 ± 0.07 | T -0.489 ± 0.11 | V -0.121 ± 0.06 | W -0.005 ± 0.075 | S -0.994 ± 0.18 | A -0.607 ± 0.11 | M -0.277 ± 0.08
